For data set [1], the target named is T1, DUE-B (Homo sapiens, UniProt Q8TEA8 SEQ:1-209).
T1 sequence: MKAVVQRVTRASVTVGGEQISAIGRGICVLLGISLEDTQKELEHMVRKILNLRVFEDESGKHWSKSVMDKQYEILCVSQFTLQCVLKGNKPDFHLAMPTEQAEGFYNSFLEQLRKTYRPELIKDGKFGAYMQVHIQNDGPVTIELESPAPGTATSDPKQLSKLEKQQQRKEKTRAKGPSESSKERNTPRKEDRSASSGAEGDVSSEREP
The data set can be described thus: EMSA; strongly retarded complex without poly dI-dC; 30 C 30 min; reduced by poly dI-dC. The note with it: tags: 6His, baculovirus/Sf9 expressed, Ni-NTA; label: 32P (alpha-32P-dCTP by PCR). Here is the method:
An electrophoretic mobility shift assay (EMSA) was used to test whether the baculovirus expressed DUE-B protein could bind to DNA in vitro. When added to a radiolabeled c-myc DUE probe in the absence of nonspecific competitor (poly dI-dC), DUE-B produced a strongly retarded protein-DNA complex band (FIG. 14, lanes 1-4). […] When HeLa cell cytoplasmic extract was added to the c-myc DUE probe in the absence of poly dI-dC an intense band was observed that was not affected by the addition of DUE-B (lanes 13-16). With the addition of the nonspecific competitor poly dI-dC, however, a novel band appeared that was dependent on the addition of DUE-B (asterisks, lanes 17-24). […] Similar to the results obtained when cytosol was added to the c-myc DUE probe, when nuclear extract from HeLa cells was added to the c-myc DUE probe in the absence of poly dI-dC an intense band was observed that was not affected by the addition of DUE-B (lanes 25-28). In the presence of competitor for nonspecific binding, however, a novel band appeared that was dependent on the addition of DUE-B (brackets, lanes 32 and 36). […] In FIG. 14, a 123 bp fragment of the c-myc replication origin containing the DUE/ARS region was labeled with alpha-³²P-dCTP by PCR. 25 fmol were mixed with recombinant DUE-B purified by Ni-NTA affinity chromatography from SF9 insect cells. […]

In data set [2] the target is T1, DUE-B. The data set can be described thus: FP; saturable polarization; 2 nM oligo; 100 mM Tris pH 7.5 (printed mN), 800 mM NaCl, 10 mM EDTA; reversed by poly dI-dC; 16-epiestriol (E2850) stimulates. The note with it: tags: N-terminal 6His and V5, baculovirus expressed; label: FITC at 3' end of both strands via C6 spacer. Here is the method: A mastermix is prepared consisting of 1× reaction buffer, 2 nM labeled oligo and 0.125 or 0.250 ug DUE-B per 100 ul of mastermix. Compounds (in this case steroids) are added to the bottom of a 96 well plate. 100 ul of mastermix is added to each well and allowed to equilibrate for 30 sec. Fluorescence polarization is then measured.
In FIG. 23A, the effect of increasing concentrations of DUE-B on the polarization of dsDNA was assessed. As expected, polarization of the dsDNA becomes saturated as the DUE-B protein concentration increases. Note that at 0.125 and 0.250 μg of DUE-B a reasonable shift in polarization of dsDNA is seen. Using these set conditions (0.250 ug DUE-B), the effect of adding a non-specific DNA inhibitor (pdldC) to the reaction (FIG. 23B) was tested. […] It is observed that the polarization was stable for at least 2 hours, making this assay very feasible for high throughput screening.

B1: c-myc DUE/ARS 123 bp probe (dsDNA)
DNA 1: GAAGGAATTCATGAGAAGAATGTTTTTTGTTTTTCATGCCGTGGAATAACACAAAATAAAAAATCCCGAGGGAATATACATTATATATTAAATATAGATCATTTCAGGGAGCTCGAGAAACAA
DNA 2: TTGTTTCTCGAGCTCCCTGAAATGATCTATATTTAATATATAATGTATATTCCCTCGGGATTTTTTATTTTGTGTTATTCCACGGCATGAAAAACAAAAAACATTCTTCTCATGAATTCCTTC
Regarding B1, in the data set with DUE-B [1], the binding result is recorded as “binds”.

B2: DUE 30-mer probe (dsDNA)
DNA 1: GGAATATACATTATATATTAAATATAGATC
DNA 2: GATCTATATTTAATATATAATGTATATTCC
Take B2: the binding result in the data set with DUE-B [2] is given as “binds”.

Values taken from patent publication US20040219554, “Dna binding protein” (published 2004).
